Experimental data from the supplement of paper PMC11246515.
± gives the standard deviation of the averaged measurements.

Experiment: total protein half-life in vivo (active degradation + dilution); higher = more stable protein
[1] = E. coli NCM3722 delta-clpP delta-lon delta-hslV, growth: N-lim chemostat, doubling time 6 h
[2] = E. coli NCM3722 delta-clpP, growth: N-lim chemostat, doubling time 6 h
[3] = E. coli NCM3722 delta-hslV, growth: N-lim chemostat, doubling time 6 h
[4] = E. coli NCM3722 delta-lon, growth: N-lim chemostat, doubling time 6 h
[5] = E. coli NCM3722 delta-smpB, growth: N-lim chemostat, doubling time 6 h
[6] = wild type E. coli NCM3722, growth: C-lim chemostat, doubling time 3 h
[7] = wild type E. coli NCM3722, growth: C-lim chemostat, doubling time 6 h
[8] = wild type E. coli NCM3722, growth: C-lim chemostat, doubling time 12 h
[9] = wild type E. coli NCM3722, growth: N-lim chemostat, doubling time 6 h
[10] = wild type E. coli NCM3722, growth: N-lim chemostat, doubling time 12 h
[11] = wild type E. coli NCM3722, growth: P-lim chemostat, doubling time 6 h
[12] = wild type E. coli NCM3722, growth: P-lim chemostat, doubling time 12 h

MKNIIRTPETHPLTWRLRDDKQPVWLDEYRSKNGYEGARKALTGLSPDEIVNQVKDAGLKGRGGAGFSTGLKWSLMPKDESMNIRYLLCNADEMEPGTYKDRLLMEQLPHLLVEGMLISAFALKAYRGYIFLRGEYIEAAVNLRRAIAEATEAGLLGKNIMGTGFDFELFVHTGAGRYICGEETALINSLEGRRANPRSKPPFPATSGAWGKPTCVNNVETLCNVPAILANGVEWYQNISKSKDAGTKLMGFSGRVKNPGLWELPFGTTAREILEDYAGGMRDGLKFKAWQPGGAGTDFLTEAHLDLPMEFESIGKAGSRLGTALAMAVDHEINMVSLVRNLEEFFARESCGWCTPCRDGLPWSVKILRALERGEGQPGDIETLEQLCRFLGPGKTFCAHAPGAVEPLQSAIKYFREEFEAGIKQPFSNTHLINGIQPNLLKERW
total protein half-life in vivo [1]: 5.67 ± 0.18 h
total protein half-life in vivo [2]: 5.27 ± 0.43 h
total protein half-life in vivo [3]: 6.1 ± 0.97 h
total protein half-life in vivo [4]: 5.74 ± 0.13 h
total protein half-life in vivo [5]: 5.48 ± 0.17 h
total protein half-life in vivo [6]: 2.73 ± 0.23 h
total protein half-life in vivo [7]: 5.63 ± 0.092 h
total protein half-life in vivo [8]: 9.99 ± 0.41 h
total protein half-life in vivo [9]: 5.44 ± 0.24 h
total protein half-life in vivo [10]: 9.884 ± 0.082 h
total protein half-life in vivo [11]: 5.251 ± 0.0079 h
total protein half-life in vivo [12]: 10.4 ± 0.9 h

MKNIRNFSIIAHIDHGKSTLSDRIIQICGGLSDREMEAQVLDSMDLERERGITIKAQSVTLDYKASDGETYQLNFIDTPGHVDFSYEVSRSLAACEGALLVVDAGQGVEAQTLANCYTAMEMDLEVVPVLNKIDLPAADPERVAEEIEDIVGIDATDAVRCSAKTGVGVQDVLERLVRDIPPPEGDPEGPLQALIIDSWFDNYLGVVSLIRIKNGTLRKGDKVKVMSTGQTYNADRLGIFTPKQVDRTELKCGEVGWLVCAIKDIHGAPVGDTLTLARNPAEKALPGFKKVKPQVYAGLFPVSSDDYEAFRDALGKLSLNDASLFYEPESSSALGFGFRCGFLGLLHMEIIQERLEREYDLDLITTAPTVVYEVETTSREVIYVDSPSKLPAVNNIYELREPIAECHMLLPQAYLGNVITLCVEKRGVQTNMVYHGNQVALTYEIPMAEVVLDFFDRLKSTSRGYASLDYNFKRFQASDMVRVDVLINGERVDALALITHRDNSQNRGRELVEKMKDLIPRQQFDIAIQAAIGTHIIARSTVKQLRKNVLAKCYGGDISRKKKLLQKQKEGKKRMKQIGNVELPQEAFLAILHVGKDNK
total protein half-life in vivo [1]: 5.44 ± 0.33 h
total protein half-life in vivo [2]: 5.46 ± 0.92 h
total protein half-life in vivo [3]: 5.24 ± 0.14 h
total protein half-life in vivo [4]: 5.28 ± 0.43 h
total protein half-life in vivo [5]: 4.79 ± 0.27 h
total protein half-life in vivo [6]: 3.03 ± 0.18 h
total protein half-life in vivo [7]: 5.49 ± 0.072 h
total protein half-life in vivo [8]: 10.2 ± 0.72 h
total protein half-life in vivo [9]: 4.754 ± 0.043 h
total protein half-life in vivo [10]: 8.74 ± 0.49 h
total protein half-life in vivo [11]: 5.851 ± 0.057 h
total protein half-life in vivo [12]: 12.16 ± 0.1 h

MKNIRYIDKKDVENLIENKISDDVIIFLSGPTSQKTPLSVLRTKDIIAVNGSAQYLLSNNIVPFIYVLTDVRFLHQRRDDFYKFSQRSRYTIVNVDVYEHASKEDKLYILQNCLVLRSFYRREKGGFIKKIKFNILRQIHKELLISVPLSKKGRLVGFCKDISLGYCSCHTIAFAAIQIAYSLKYARIICSGLDLTGSCSRFYDENKNPMPSELSRDLFKILPFFRFMHDNVKDINIYNLSDDTAISYDVIPFIKLQDISAEESKDMTRKKMQYRTSTDSYAN
total protein half-life in vivo [1]: 5.01 ± 0.085 h
total protein half-life in vivo [2]: 4.65 ± 0.19 h
total protein half-life in vivo [4]: 3.32 ± 0.14 h
total protein half-life in vivo [5]: 3.714 ± 0.0057 h
total protein half-life in vivo [6]: 1.67 ± 0.44 h
total protein half-life in vivo [7]: 1.52 ± 0.34 h
total protein half-life in vivo [8]: 1.73 ± 0.45 h
total protein half-life in vivo [9]: 3.52 h
total protein half-life in vivo [10]: 6.11 ± 0.77 h
total protein half-life in vivo [11]: 1.84 ± 0.14 h
total protein half-life in vivo [12]: 4.15 ± 0.71 h

MKNKADNKKRNFLTHSEIESLLKAANTGPHAARNYCLTLLCFIHGFRASEICRLRISDIDLKAKCIYIHRLKKGFSTTHPLLNKEVQALKNWLSIRTSYPHAESEWVFLSRKGNPLSRQQFYHIISTSGGNAGLSLEIHPHMLRHSCGFALANMGIDTRLIQDYLGHRNIRHTVWYTASNAGRFYGIWDRARGRQRHAVL [P0ADH5]
total protein half-life in vivo [1]: 5.33 ± 0.87 h
total protein half-life in vivo [4]: 1.9 h
total protein half-life in vivo [5]: 0.718 ± 0.15 h
total protein half-life in vivo [10]: 0.988 h

MKNKLPPFIEIYRALIATPSISATEEALDQSNADLITLLADWFKDLGFNVEVQPVPGTRNKFNMLASIGQGAGGLLLAGHTDTVPFDDGRWTRDPFTLTEHDGKLYGLGTADMKGFFAFILDALRDVDVTKLKKPLYILATADEETSMAGARYFAETTALRPDCAIIGEPTSLQPVRAHKGHISNAIRIQGQSGHSSDPARGVNAIELMHDAIGHILQLRDNLKERYHYEAFTVPYPTLNLGHIHGGDASNRICACCELHMDIRPLPGMTLNELNGLLNDALAPVSERWPGRLTVDELHPPIPGYECPPNHQLVEVVEKLLGAKTEVVNYCTEAPFIQTLCPTLVLGPGSINQAHQPDEYLETRFIKPTRELITQVIHHFCWH
total protein half-life in vivo [1]: 4.97 ± 0.62 h
total protein half-life in vivo [2]: 4.73 ± 0.34 h
total protein half-life in vivo [3]: 4.636 ± 0.017 h
total protein half-life in vivo [4]: 4.68 ± 0.19 h
total protein half-life in vivo [5]: 4.29 ± 0.23 h
total protein half-life in vivo [6]: 3.27 ± 0.46 h
total protein half-life in vivo [7]: 5.46 ± 0.24 h
total protein half-life in vivo [8]: 10.9 ± 2.2 h
total protein half-life in vivo [9]: 4.68 ± 0.058 h
total protein half-life in vivo [10]: 7.38 ± 0.21 h
total protein half-life in vivo [11]: 5.95 ± 0.067 h
total protein half-life in vivo [12]: 11 ± 0.37 h

MKNWKTLLLGIAMIANTSFAAPQVVDKVAAVVNNGVVLESDVDGLMQSVKLNAAQARQQLPDDATLRHQIMERLIMDQIILQMGQKMGVKISDEQLDQAIANIAKQNNMTLDQMRSRLAYDGLNYNTYRNQIRKEMIISEVRNNEVRRRITILPQEVESLAQQVGNQNDASTELNLSHILIPLPENPTSDQVNEAESQARAIVDQARNGADFGKLAIAHSADQQALNGGQMGWGRIQELPGIFAQALSTAKKGDIVGPIRSGVGFHILKVNDLRGESKNISVTEVHARHILLKPSPIMTDEQARVKLEQIAADIKSGKTTFAAAAKEFSQDPGSANQGGDLGWATPDIFDPAFRDALTRLNKGQMSAPVHSSFGWHLIELLDTRNVDKTDAAQKDRAYRMLMNRKFSEEAASWMQEQRASAYVKILSN [P0ABZ6]
total protein half-life in vivo [1]: 5.66 ± 0.16 h
total protein half-life in vivo [2]: 6.39 ± 1.2 h
total protein half-life in vivo [3]: 6.52 ± 0.36 h
total protein half-life in vivo [4]: 6.49 ± 0.28 h
total protein half-life in vivo [5]: 5.7 ± 0.35 h
total protein half-life in vivo [6]: 2.97 ± 0.098 h
total protein half-life in vivo [7]: 6.4 ± 0.42 h
total protein half-life in vivo [8]: 11.7 ± 0.87 h
total protein half-life in vivo [9]: 6.23 ± 0.57 h
total protein half-life in vivo [10]: 13.1 ± 0.99 h
total protein half-life in vivo [11]: 5.78 ± 0.24 h
total protein half-life in vivo [12]: 11.7 ± 0.52 h

MKPENKLPVLDLISAEMKTVVNTLQPDLPPWPATGTIAEQRQYYTLERRFWNAGAPEMATRAYMVPTKYGQVETRLFCPQPDSPATLFYLHGGGFILGNLDTHDRIMRLLASYSQCTVIGIDYTLSPEARFPQAIEEIVAACCYFHQQAEDYQINMSRIGFAGDSAGAMLALASALWLRDKQIDCGKVAGVLLWYGLYGLRDSVTRRLLGGVWDGLTQQDLQMYEEAYLSNDADRESPYYCLFNNDLTREVPPCFIAGAEFDPLLDDSRLLYQTLAAHQQPCEFKLYPGTLHAFLHYSRMMKTADEALRDGAQFFTAQL
total protein half-life in vivo [6]: 3.18 ± 0.17 h
total protein half-life in vivo [7]: 5.349 ± 0.029 h
total protein half-life in vivo [8]: 8.02 ± 2.3 h
total protein half-life in vivo [10]: 11.6 h
total protein half-life in vivo [11]: 5.69 ± 1.1 h
total protein half-life in vivo [12]: 10.9 ± 1.4 h
